Reference: US10066025B2, “Compositions and methods for detecting, treating and preventing diseases and disorders” (YALE UNIVERSITY, priority 2012, dated 2018)

Key:
HK-2 cells [1] = experiment: HK-2 cell cisplatin toxicity (WST-1 viability, western blot); assay type: cell-based, human; conditions: 20 μM cisplatin, 24 hrs
Protocol: Cultured HK-2 cells were incubated with 20 μM cisplatin for 24 hours with and without recombinant renalase. Renalase expression was examined by Western blot and cell viability (mitochondrial integrity) was determined spectrophotometrically using WST-1, a tetrazolium salt that is cleaved, by mitochondrial dehydrogenases of metabolically active and viable cells, to formazan (420-480 nm) (Boehringer Mannheim, Germany).
(§1) HK2 cells (human proximal tubular line) obtained from ATTC (Manassas, Va., USA) were cultured in DMEM/F12 supplemented with glutamine, 10% FBS and antibiotics, and were maintained at 37° C. in 5% CO2. Cells were exposed to cisplatin (20 μM) in the presence or absence of renalase for 24 hrs, and cell viability was assessed by the WST1 method (Roche Applied Science, Germany). Cells were then harvested in RIPA buffer (20 mM Tris-HCl pH 7.5, 150 mM NaCl, 1 mM Na2EDTA, 1 mM EGTA, 1% NP-40, 1% sodium deoxycholate, 2.5 mM sodium pyrophosphate, 1 mM β-glycerophosphate, 1 mM Na3VO4, 1 μg/ml leupeptin) supplemented with a protease and phosphatase inhibitor cocktail (Roche Applied Science, Germany). Proteins were separated by SDS-PAGE and Western blotting was carried out using the following antibodies: anti-renalase monoclonal (Desir et al., 2012, J Am Heart Assoc. 1:e002634; (Lee et al., 2013, J Am Soc Nephrol 24:445-455); anti caspase 3 (Cell Signaling Technology, MA, USA) and anti Bcl2 (Thermo Scientific, USA). Necrotic injury in HK-2 cells (ATCC, Manassas, Va.) was induced with exposure to 2 mM H2O2 for 2-8 hr and lactate dehydrogenase (LDH) released into cell culture media was measured as described using a commercial LDH assay kit (Promega, Madison, Wis.) (Lee and Emala, 2002, American journal of physiology. Renal physiology 282:F844-852).

[2] = tested on: renal ischemia/reperfusion (IR) injury; experiment: Histological detection of necrosis, apoptosis, neutrophil and macrophage infiltration after renal IR; assay type: in vivo, mice
Protocol: Adult male renalase deficient (KO) mice (Wu et al., 2011, Kidney Int 79: 853-860) on a C57BL/6 background were subjected to renal ischemia/reperfusion (IR) as described (Kim et al., 2009, Kidney Int 75: 809-823; Kim et al., 2010, Am J Physiol Renal Physiol 299(2):[…]-58). Renalase KO or wild type (WT) mice (C57BL/6 from Harlan Labs, Indianapolis, Ind.) were subjected to sham-operation or to 20 min. (moderate) or 30 min. (severe) renal ischemia and 24 hr. reperfusion. To test the renal protective effects of recombinant human renalase, mice were pretreated with saline (vehicle) or with recombinant renalase (0.5, 1.5 or 4.5 mg/kg, s.c.) 10 min. prior to 30 min. renal ischemia. It was also tested whether renalase treatment after completion of renal ischemia also provides renal protection. Separate cohorts of mice were treated with saline or with renalase (1.5 mg/kg, s.c.) 30 min. or 60 min. after reperfusion of the ischemic kidney. To test whether blocking alpha receptors would mimic the renal protective effects of human recombinant renalase administration, phentolamine (an alpha receptor antagonist, 5 mg/kg, i.p.) was given in some mice 15 min. before renal ischemia. An established grading scale of necrotic injury (0-4, Renal Injury Score) to the proximal tubules was used for the histopathological assessment of IR-induced damage as outlined by Jablonski et al. (1983, Transplantation 35: 198-204) and as described in previous studies (Lee et al., 2004, J Am Soc Nephrol 15: 102-111; Lee et al., 2004, Am J Physiol Renal Physiol 286: […]-[…]). Apoptosis was detected after renal IR with TUNEL staining as described (Park et al., 2011, Lab Invest 91: 63-84) using a commercially available in situ cell death detection kit (Roche, Indianapolis, Ind.) according to the instructions provided by the manufacturer. Kidney neutrophil and macrophage infiltrations were assessed with immunohistochemistry 24 hr. after IR as described previously (Park et al., 2011, Lab Invest 91: 63-84). Neutrophils and macrophages infiltrating the kidney were quantified in 5-7 randomly chosen 200× (neutrophils) or 400× (macrophages) microscope images fields in the corticomedullary junction and results were expressed as neutrophils counted per 200-400× field.

plasma norepinephrine = experiment: Plasma norepinephrine after renal IR (ELISA); assay type: in vivo; conditions: 1.5 mg/kg; mice subjected to renal IR; vehicle 2.4±0.13 ng/mL
Protocol: (§2) Adult male renalase deficient (KO) mice (Wu et al., 2011, Kidney Int 79: 853-860) on a C57BL/6 background were subjected to renal ischemia/reperfusion (IR) as described (Kim et al., 2009, Kidney Int 75: 809-823; Kim et al., 2010, Am J Physiol Renal Physiol 299(2):F347-58). Renalase KO or wild type (WT) mice (C57BL/6 from Harlan Labs, Indianapolis, Ind.) were subjected to sham-operation or to 20 min. (moderate) or 30 min. (severe) renal ischemia and 24 hr. reperfusion. To test the renal protective effects of recombinant human renalase, mice were pretreated with saline (vehicle) or with recombinant renalase (0.5, 1.5 or 4.5 mg/kg, s.c.) 10 min. prior to 30 min. renal ischemia. It was also tested whether renalase treatment after completion of renal ischemia also provides renal protection. Separate cohorts of mice were treated with saline or with renalase (1.5 mg/kg, s.c.) 30 min. or 60 min. after reperfusion of the ischemic kidney. To test whether blocking alpha receptors would mimic the renal protective effects of human recombinant renalase administration, phentolamine (an alpha receptor antagonist, 5 mg/kg, i.p.) was given in some mice 15 min. before renal ischemia.
Plasma norepinephrine in mice subjected to sham-operation or to renal IR was measured with a commercial ELISA kit according to the manufacturer's instructions (Rocky Mountain Diagnostics, Colorado Springs, Colo.).

[3] = tested on: renal ischemia/reperfusion (IR) injury; experiment: Murine model of renal ischemia/reperfusion (IR) injury, plasma creatinine; assay type: in vivo, mice
Protocol: as §2
Plasma creatinine was measured as described with an enzymatic creatinine reagent kit according to the manufacturer's instructions (Thermo Fisher Scientific, Waltham, Mass.) (Slot, 1965, J Clin Lab Invest 17: 381-387).
After animal care and use committee approval, adult male C57BL/6 (Harlan Labs, Indianapolis, Ind.) were subjected to sham-operation or to 30 minutes of renal ischemia followed by 24 hrs of reperfusion as previously described (Lee et al., 2004, American journal of physiology. Renal physiology 286:F298-306). To test the renal protective effects of renalase peptides (RP-220, RP-H220 and RP-224), mice were pretreated with saline (vehicle) or with renalase peptides (100 μg subcutaneous) 10 to 30 minutes prior to renal ischemia.
Blood was collected from mice anesthetized with isoflurane via cardiac puncture into a heparinized syringe and was subsequently centrifuged to separate plasma. Samples were submitted to the Yale O'Brien Kidney Center for measurement of BUN and creatinine. Plasma creatinine was measured either by an enzymatic creatinine reagent kit according to the manufacturer's instructions (Thermo Fisher Scientific, Waltham, Mass.) or by HPLC. These methods of creatinine measurement largely eliminate the interferences from mouse plasma chromagens, known to occur with the Jaffe method.

systemic blood pressure = conditions: Xu et al., 2005, cited from earlier work
HK-2 cells [4] = experiment: HK-2 cell necrosis induced with 2 mM H2O2 (LDH release); assay type: cell-based, human
Protocol: as §1

[5] = cited from earlier work
[6] = tested on: PI3K/AKT and MAPK pathways; experiment: AKT and MAPK signaling and Bcl-2 expression by western blot; assay type: cell-based, human
Protocol: FIG. 12, comprising FIGS. 12A through 12E, is a set of images and graphs showing renalase upregulates Bcl-2, activates PI3K/AKT, ERK, p38, and inhibits JNK. Western blot analysis; P− indicates phosphorylated, activated proteins; signals normalized to GAPDH loading control, then changes in protein phosphorylation (increase=activation, decrease=inhibition) from time 0 are calculated. FIG. 12A: HK-2 and HUVEC cells incubated with renalase for 24 hrs; FIG. 12B: Western blot of time course of AKT and MAPK signaling by renalase, HK-2 cells incubated with renalase for indicated time; changes over baseline in 4c-d are significant (p<0.05); FIG. 12C: Activation of AKT(T308), AKT(5473) and ERK; FIG. 12D: Inhibition of JNK; FIG. 12E: Marked and sustained (60 min) upregulation of p38 by renalase in the presence of cisplatin, western blot for time course, REN=renalase, CP=cisplatin.
MAPK signaling by renalase and renalase peptides. Western blot analysis; ERK: Extracellular signal-Regulated Kinase 1 and 2; JNK: c-Jun N-terminal Kinases; AKT: protein kinase B; p-indicates phosphorylated, activated proteins; representative blot, n=3 (FIG. 20A). Renalase activates AKT (FIG. 20B). Western blot analysis; P− indicates phosphorylated, activated proteins Representative blot, n=3 (FIG. 20B, left panel). Signals normalized to GAPDH loading control; n=3, change over baseline statistically significant (P<0.05) from 1-60 min for ERK, p38 and AKT (T308), and at 30 min only for AKT (S473) (FIG. 20B, right panel). ERK or AKT inhibition abrogates protective effect of RP-H220 (FIG. 20C). Plasma creatinine levels from mice subjected to sham-surgery or to renal ischemia and reperfusion (IR); Renalase WT mice were subjected to sham-surgery or to 30 min renal IR. For mice subjected to renal IR, RP-H220 or vehicle (saline) was injected 10 min prior to renal ischemia. Some animals were pretreated with either the ERK inhibitor PD98059 or the PI3K/AKT inhibitor wortmanin. (N=6-8 per group). *: P<0.05 vs. vehicle-treated mice subjected to sham-surgery; #: P<0.05 vs. vehicle-treated WT mice subjected to renal IR (FIG. 20C).

[7] = treated before renal ischemia, 30 min. ischemia, 24 hr. reperfusion

B1: recombinant renalase: human recombinant renalase, 38 kDa FAD-dependent amine oxidase; renalase polypeptide SEQ ID NO: 9 or 10 (protein, UniProt Q5VYX0 18-342, looked up)
Renalase: ALLRRQTSGPLYLAVWDKAEDSGGRMTTACSPHNPQCTADLGAQYITCTPHYAKKHQRFYDELLAYGVLRPLSSPIEGMVMKEGDCNFVAPQGISSIIKHYLKESGAEVYFRHRVTQINLRDDKWEVSKQTGSPEQFDLIVLTMPVPEILQLQGDITTLISECQRQQLEAVSYSSRYALGLFYEAGTKIDVPWAGQYITSNPCIRFVSIDNKKRNIESSEIGPSLVIHTTVPFGVTYLEHSIEDVQELVFQQLENILPGLPQPIATKCQKWRHSQVTNAAANCPGQMTLHHKPFLACGGDGFTQSNFDGCITSALCVLEALKNYI
HK-2 cells [1]
  cell survival / protection against cisplatin toxicity: improved HK-2 cell survival
HK-2 cells [1]; listed as exogenous renalase
  cell survival / protection against cisplatin toxicity: reversed
HK-2 cells [1]; western blot
  Bcl-2 expression: increased Bcl-2 expression
  caspase-3 activation: decreased caspase-3 activation
  cellular renalase expression: restored cellular renalase expression
HK-2 cells [1]; western blot, listed as Renalase
  caspase-3 activation: inhibited caspase-3 activation
[2]; 1.5 mg/kg s.c. 10 min. before renal ischemia
  apoptotic TUNEL-positive cells in the kidney: significantly reduced the number of apoptotic TUNEL-positive cells
[2]; 1.5 mg/kg, renalase WT mice vs. vehicle
  renal histological injury (hematoxylin and eosin): dramatically reduced injury
[2]; renalase WT mice, 30 min. renal IR, 24 hr. after IR, vs. vehicle
  Jablonski scale renal injury score (0-4): significantly lower renal injury scores
[2]; [7]
  macrophages infiltrating the kidney after IR (F4/80): significantly reduced number of macrophages
  neutrophils infiltrating the kidney after IR: significantly reduced number of neutrophils
Plasma norepinephrine
  plasma norepinephrine: 1.6 ± 0.2 ng/mL
[3]; 1.5 mg/kg given 30 min. after reperfusion
  protection against renal IR injury, post-ischemic treatment: protective against renal IR injury
[3]; 4.5 mg/kg s.c. 10 min. before renal ischemia
  renal protection at higher dose compared with 1.5 mg/kg: provided reduced renal protection
[3]; 0.5, 1.5 or 4.5 mg/kg s.c. 10 min. before 30 min. renal ischemia, 24 hr. reperfusion
  increases in plasma creatinine after renal IR: significantly attenuated the increases in plasma creatinine
[3]; given 60 min. after reperfusion
  protection against renal IR injury, post-ischemic treatment: did not provide renal protection
[3]; recombinant renalase 1.5 mg/kg, 30 min. warm ischemia, decreased from ~2.4 mg/dL
  plasma creatinine: 1.4 mg/dL
Systemic blood pressure; 4 mg/kg dose
  reduction of mean arterial pressure: ~40%
Systemic blood pressure
  blood pressure when injected into rodents: marked decrease in blood pressure
HK-2 cells [4]; 10 μg/ml, 2 mM H2O2, vehicle LDH=47+3%
  LDH released at 6 hr: 28±2%
HK-2 cells [4]; vs. vehicle-treated HK-2 cells
  necrosis induced with 2 mM H2O2: significantly reduced necrosis
[5]
  increase in rate of epinephrine metabolism in the presence of NADH: 18 fold
[6]; HK-2 and human vein endothelial cells (HUVEC) at 24 hrs
  Bcl-2 expression: upregulates Bcl-2 expression
[6]; HK-2 cells
  decrease in JNK-p54/p46 phosphorylation: ~95%
[6]; HK-2 cells in culture
  AKT and MAPK signaling (phosphorylation of ERK, p38, AKT): rapid and transient increase in phosphorylated
[6]; at 15 min, HK-2 cells
  activation of AKT: ~45 fold
  activation of ERK: ~35 fold
[6]; cells treated with cisplatin
  activation of AKT and p38: marked and sustained activation
